Data from the supplement of paper PMC10567573.

B1: ZNF263 (parent)
chain: QPKKLHLCPLCGKNFSNNSNLIRH
B2: FAM164C (parent)
chain: YPHCTGISQQDPESDSQGQGNGLF

Variants of: B1
Test: protein stability index of a GFP-peptide fusion (GPS, HEK-293T) (PSI 1-6); higher = more stable
Details: c terminus: a fixed tail appended
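Also: lentivirally expressed fusions sorted by FACS into six bins by GFP to DsRed ratio, PSI derived from sequencing read proportions per bin multiplied by bin number.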

Protein stability index of substitutions, site by site:
I22: A 2.8; Y 2.69; F 2.47; E 3.45; D 2.86; L 2.93; P 2.19; W 1.79; V 2.73; S 2.55; H 2.76; K 2.33; C 4.04; M 2.88; R 2.76; G 1.98; N 2.5; T 2.35; Q 3.09
S19: I 2.58; F 2.54; Q 2.69; K 3.37; A 2.65; V 2.43; M 2.7; H 2.55; R 2.5; W 2.67; P 1.77; E 3.14; N 2.89; Y 2.6; L 2.96; D 3.24; G 1.96; T 2.75; C 3.3
L21: M 2.48; W 2.44; A 2.56; Q 2.38; P 1.93; F 2.32; C 3.13; T 2.56; S 2.19; D 2.72; N 2.44; R 2.64; G 2.62; Y 2.12; V 2.85; E 2.92; I 2.47; K 2.87; H 2.83
N18: I 2.33; S 2.39; R 3.36; K 2.31; Q 3.17; A 2.97; M 2.5; G 1.8; L 3.11; W 2.73; C 2.48; P 3.28; E 3.66; T 2.45; H 2.82; Y 3.22; F 2.76; D 2.8; V 2.86
H24: D 2.11; M 2.31; C 1.84; E 2.43; Q 2.43; R 2.07; A 1.74; T 2.35; L 2.24; F 2.44; G 2.43; W 2.38; S 2.4; P 2.56; K 2.64; V 2.27; N 2.22; I 2.08; Y 2.61
R23: V 2.33; G 2.65; I 1.91; E 3.06; A 3.08; Y 1.91; D 3.77; S 2.78; M 2.52; K 3.19; F 2.42; T 2.92; W 1.76; Q 2.77; C 3; H 2.56; P 2.93; L 2; N 2.96
N17: K 2.28; M 2.26; T 2.91; I 2.25; L 2.58; W 2.15; Q 2.42; V 2.18; R 2.07; Y 2.23; S 2.66; G 2.09; P 2.33; H 2.43
N20: K 3; S 3.09; F 1.57; C 3.21; E 3.42; R 2.01; A 3.25; V 2.04; D 4; G 2.46; Y 2.56; M 2.54; P 2.49; L 3.05; T 2.94; W 1.57; Q 4.04; I 1.94; H 2.69

Variants of: B2
Test: as above
Details: c terminus: a fixed tail appended

Protein stability index: each site, then its substitutions
G6: C 2.46; F 3.01; Y 2.77; K 3.23; S 3.82; M 3.34; T 3.51; A 3.53; L 3.25; I 3.25; E 4.46; H 3.62; D 4.23; W 2.87; R 3.45; V 4.17; Q 3.58; P 2.25; N 3.56
Q10: E 3.87; M 3.84; G 3.88; H 3.65; L 2.96; P 3.78; F 3.19; R 3.54; D 3.68; K 4; I 3.64; S 3.48; A 3.48; C 3.1; N 4.05; T 3.64
Y1: E 5.25; W 4.43; I 5.14; D 5.46; N 5.28; R 4.63; P 5.37; C 4.29; A 5.44; G 5.44; K 5.28; F 3.49; S 5.39; M 5.4; Q 5.36; V 5.07; L 5.44; T 5.38; H 4.85
C4: L 4.36; V 4.07; F 3.58; W 2.75; K 4.39; A 3.92; Q 4.53; R 4.06; H 4.24; G 3.5; D 5.02; M 4.36; Y 3.17; E 4.82; N 4.25; T 4.32; I 3.72; P 3.37; S 4.16
T5: W 1.68; A 3.46; L 2.35; D 4.6; Y 3.17; Q 3.89; V 3.18; M 2.23; N 3.32; K 3.55; P 3.25; E 4.49; S 3.53; C 1.9; R 2.71; G 2.93; H 3.2; F 2.32; I 3.34
S8: K 4.15; A 3.51; L 3.35; T 3.74; N 3.39; P 3.91; G 3.52; H 3.65; F 2.69; W 1.84; I 3.59; M 3.33; E 4.17; C 3.11; Q 3.95; Y 2.75; D 3.91; R 3.57; V 3.73
Q9: V 3.19; A 4.06; K 3.42; R 3.68; S 3.97; Y 3.11; P 3.67; L 2.98; N 3.5; F 3.05; T 3.63; I 3.71; G 3.85; M 3.49; H 3.58; W 2.48; D 3.91; C 3.43; E 3.89
H3: N 4.09; M 3.46; S 3.07; C 3.1; Y 3.2; I 4.18; F 4; R 3.6; V 4.34; P 3.32; D 4.48; T 4.12; W 3.22; A 3.75; E 4.58; L 3.37; K 3.9; Q 3.29; G 3.39
P2: K 4.51; S 4.65; R 4.71; Q 3.58; G 4.47; T 3.35; E 5.31; V 1.91; I 2.83; F 3.86; C 2.45; M 4.07; Y 4.22; W 3.67; A 3.57; H 2.9; N 4.54; D 5.09; L 3.96
I7: K 3.56; G 3.83; Y 2.64; P 4.18; T 3.95; D 4.45; W 1.51; Q 4.01; R 3.94; N 4.11; M 3.38; L 3.9; E 4.68; V 3.82; C 3.56; A 4.04; H 4; F 2.21; S 3.86
